Measured values as given in publication PMC7515726 (Nucleic Acids Research, 2020).

Biological target: FLAG-hH2A.D wild-type nucleosome, 147 bp 601 DNA (ELYS pulldowns) (human, UniProt P20671;P62807;Q71DI3;P62805)
Assay: pull-down

B1: MBP-His6-TEV-ELYS^C, C-terminal fragment of human ELYS (2157-2275) (domain or fragment)
chain: SSQFVISPPALRSRQKNTSNKNKLEDELKDDAQSVETLGKPKAKRIRTSKTKQASKNTEKESAWSPPPIEIRLISPLASPADGVKSKPRKTTEVTGTGLGRNRKKLSSYPKQILRRKML
Q: Does B1 bind?
A: binds
